Assay results from patent US20240400717A1, “Antibody Binding to CHI3L1 for Treating Cancer” (National Cheng Kung University, priority 2021, published 2024).
Each block holds one molecule with its values, some of them ahead of it.

Legend:
[1] = system: KPPC-luc cells; experiment: KPPC-luc orthotopic C57BL/6J mice model, mono-treatment; assay type: in vivo
Procedure: (§1) Thus, we established orthotopic animal models by directly injecting murine pancreatic cancer KPPC-luc cells (5×10^6) into pancreas of immunocompetent (C57BL/6J) mice. All mice were divided into two groups and treated with IgG isotype antibody as control, or mAb clone R4-4 (5 mg/kg) by intravenous (i.v.) injection via tail-vein at indicated time points (Day 3, Day 7, Day 10, and Day 14). Mice were sacrificed to verify tumor information on day 28. […] Data was presented as means±S.D. P values refer to two-tailed Student's t test. * P<0.05, ** P<0.01.

[2] = target: mouse CHI3L1 antigen (Mus musculus, UniProt Q61362); experiment: Direct ELISA of phage clones, cross-reaction with mouse CHI3L1; assay type: binding; details: FIG. 1C
[3] = Mouse muscle fiber area analysis (cachexia) in KPPC-luc orthotopic model; assay type: in vivo, C57BL/6J mice
Procedure: Since pancreatic patients often suffer from cachexia, the cancer-related muscle loss disorder (Henderson et al. 2018; Yoo et al. 2021), we further performed the mouse muscle fiber area analysis in IgG and R4-4 (10 mg/kg) groups. […] The value of the cross-sectional cutoff area was set to 1800, representing severe muscle loss (FIG. 15D).

[4] = system: KPPC-luc cells; experiment: KPPC-luc orthotopic C57BL/6J mice model, mAb and chemotherapy combination; details: for tumor weight: day 29
[5] = system: MiaPaCa-2 cells; experiment: MiaPaCa-2 subcutaneous xenograft NOD-SCID mice, efficacy and toxicity; assay type: in vivo; details: for histology of liver, lung and kidney / mice body weight / serum level of GOT, GPT, BUN, albumin and creatinine: 5 mg/kg i.v.; for growth of MiaPaCa-2 subcutaneous xenografts: 5 mg/kg i.v. day 7, 14, 21, sacrificed day 28; for mice body weight / serum level of GOT, GPT, BUN, albumin and creatinine: vs IgG control
Procedure: Next, we examined whether our mAb clones R4-4 and R4-54 exert any toxicity in vivo. We performed a xenograft model by subcutaneously implanting MiaPaCa-2 cells to NOD-SCID mice. The mice were i.v. injected with IgG isotype, mAb clone R4-4, or clone R4-54 (5 mg/kg) once a week starting from day 7 to day 21, that is, day 7, day 14, and day 21, and mice were sacrificed on day 28. […] To evaluate the potential safety of our developed mAbs, we examined body weight, serum biochemical markers and histology sections of three major organs of tumor-bearing mice. […] Scale bar 100 μm. P values were determined by one-way ANOVA. * P<0.05, ** P<0.01, *** P<0.001, **** P<0.0001.

[6] = target: mouse rCHI3L1 (Mus musculus, UniProt Q61362); experiment: ELISA binding to mouse rCHI3L1; details: FIG. 10B
Procedure: FIGS. 10A to 10B show binding curves of ELISA assay indicated the binding of R4-4 (circle), R4-54 (square), 293R3-2 (triangle), and 293R3-4 (reverse triangle) to (FIG. 10A) human rCHI3L1 and (FIG. 10B) mouse rCHI3L1.
as §1

[7] = system: MiaPaCa-2 cells; experiment: MiaPaCa-2-bearing hHSC-HIS mouse model; assay type: in vivo, hHSC reconstituted ASID mice
Excerpt: (§2) We used the advanced severe immunodeficiency (ASID) mice those were implanted with human […] hematopoietic stem cells (HSCs). MiaPaCa-2 and H460 cells were then subcutaneously injected into hHSC reconstituted ASID mice to evaluate the anti-tumor effects of CHI3L1 mAb clone R4-54 on lung and pancreatic cell lines in vivo. […] Tumor and peripheral blood were also harvest for further immune cell population examinations. […] In addition, peripheral blood samples of two tumor-bearing hHSC-HIS mice models were collected for analysis of immune cell populations. […] Data was presented as means±S.D. P values refer to two-tailed Student's t test. * P<0.05, ** P<0.01, *** P<0.001.

[8] = system: H460 cells; experiment: H460-bearing hHSC-HIS mouse model; assay type: in vivo, hHSC reconstituted ASID mice
Excerpt: as §2

[9] = immunohistochemical staining, CD86 and CD163

mouse CHI3L1 antigen, sequence (Q61362 30-389): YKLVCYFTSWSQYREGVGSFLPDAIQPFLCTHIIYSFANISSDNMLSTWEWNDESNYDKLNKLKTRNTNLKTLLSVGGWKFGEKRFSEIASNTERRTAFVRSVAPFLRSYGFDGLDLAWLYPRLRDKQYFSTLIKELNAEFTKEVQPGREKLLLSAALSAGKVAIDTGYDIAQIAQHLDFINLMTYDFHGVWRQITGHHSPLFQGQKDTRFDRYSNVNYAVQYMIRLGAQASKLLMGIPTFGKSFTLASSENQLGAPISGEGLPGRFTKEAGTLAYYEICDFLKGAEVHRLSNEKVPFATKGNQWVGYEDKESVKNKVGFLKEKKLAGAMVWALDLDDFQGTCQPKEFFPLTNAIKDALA
mouse rCHI3L1, sequence (Q61362 30-389): as above

recognition of mouse CHI3L1 by phage clones [2]: cross-react with mouse CHI3L1
B1: R4-4: fully human anti-CHI3L1 IgG1 mAb, Table 1 No. 9; heavy chain SEQ ID NO: 9, light chain SEQ ID NO: 10 (antibody, listed as Homo sapiens)
VH: EVQLLESGGGLLQPGGSLRLSCAASGLTFRNYAMTWVRQAPGKGLEWVSTISGNGDETFYADSVKGHFTISRDNSKDTVYLQMNSLRAEDTAVYYCAKGGHYSFFDSWGQGSPVTVSS
light: NFMLTQPHSVSESPGKTVTISCTRSSGSIASNYVQWYQQRPGSSPTTVIYEDNQRPSGVPDRFSGSIDSSSNSASLTISGLKTEDEADYYCQSYDSSNYVFGTGTKVTVLGQPKANPTVTLFPPSSEELQANKATLVCLISDFYPGAVTVAWKADGSPVKAGVETTKPSKQSNNKYAASSYLSLTPEQWKSHRSYSCQVTHEGSTVEKTVAPAECS
tumor weight ([1]; 5 mg/kg i.v. Day 3, 7, 10, 14, day 28, vs IgG): significant reduction of tumor weight
body weight ([1]; 5 mg/kg i.v., vs IgG): without apparently body weight change
M1/M2 ratio ([1]; flow cytometry, 5 mg/kg i.v.): increased the M1/M2 ratio
tumor infiltrating M2-like TAMs (CD206+) ([1]; flow cytometry, 5 mg/kg i.v.): decreased
tumor infiltrating Treg (CD45+, Foxp3+) populations ([1]; flow cytometry, 5 mg/kg i.v.): decreased
muscle fiber area ([3]; R4-4 10 mg/kg compared to IgG): larger muscle fiber area
muscle fibers below the cutoff value ([3]; R4-4 10 mg/kg, cross-sectional cutoff area 1800): 30.4%
tumor weight ([4]; GEM 25 mg/kg, R4-4 10 mg/kg, Abraxane 2.5 mg/kg, i.p. day 14, 20, 25): 2.61 g
tumor weight ([4]; R4-4 15 mg/kg i.p. day 14, 20, 25): 1.74
Treg (CD4+, CD25+, Foxp3+) ([4]; R4-4 15 mg/kg, flow cytometry): significant decrease of Treg
angiogenesis level indicated by CD31 ([4]; all treated groups (R4-4 10 or 15 mg/kg)): largely reduced
tumor-infiltrating M1-like TAMs (CD86+, CD11b+) and M1/M2 ratio ([4]; flow cytometry): increased M1-like TAMs
tumor-infiltrating M2-like TAMs (CD206+, CD11b+) ([4]; flow cytometry): decreased M2-like TAMs
histology of liver, lung and kidney [5]: no significant adverse effects
growth of MiaPaCa-2 subcutaneous xenografts [5]: significantly delayed the growth
mice body weight [5]: no significant change in mice body weight
serum level of GOT, GPT, BUN, albumin and creatinine [5]: No obvious difference
cross-reaction with murine CHI3L1 [6]: the only one that could cross-react with murine CHI3L1

B2: R4-54: fully human anti-CHI3L1 IgG1 mAb, Table 1 No. 34; heavy chain SEQ ID NO: 33, light chain SEQ ID NO: 34 (antibody, listed as Homo sapiens)
VH: QVQLVESGGGVVQPGRSLRLSCAASGFTFSSYGMHWVRQAPGKGLEWVAVISYDGSDKDYADSVKGRFTISRDNSKNTLFLQMNSLRAEDTAVYYCARDDYDSTYYFDNWGQGTTVTVSS
light: SYELTQPPSVSVSPGQTASITCSGDILADQYASWYQQKPGQSPVLVIYHDTKRPSGVPERFSGSTSGNTATLTISGTQAMDEAAYYCQAWDINTAWVFGGGTQLTVLGQPKAAPSVTLFPPSSEELQANKATLVCLISDFYPGAVTVAWKADSSPVKAGVETTTPSKQSNNKYAASSYLSLTPEQWKSHRSYSCQVTHEGSTVEKTVAPTECS
growth of subcutaneous xenografts ([7]; 5 mg/kg i.v. every five days from day 14, day 32): significantly delayed the growth
M2-like TAM and Treg populations in tumor-infiltrating immune cells ([7]; flow cytometry): M2-like TAM and Treg populations were decreased
percentages of M1 macrophages and CD8+ T cells in tumor-infiltrating immune cells ([7]; flow cytometry): increased the percentages of M1 macrophages and CD8+ T cells
intratumoral M1 to M2 ratio and CD8 T cells [7, 9]: M1 to M2 ratio and CD8 T cells were both increased
peripheral blood CD8+ T cells and Tregs ([7]; peripheral blood): increased CD8+ T cells and decreased Tregs
growth of subcutaneous xenografts ([8]; 5 mg/kg i.v. every five days from day 6, day 27): significantly delayed the growth
M2-like TAM and Treg populations in tumor-infiltrating immune cells ([8]; flow cytometry): M2-like TAM and Treg populations were decreased
percentages of M1 macrophages and CD8+ T cells in tumor-infiltrating immune cells ([8]; flow cytometry): increased the percentages of M1 macrophages and CD8+ T cells
intratumoral M1 to M2 ratio and CD8 T cells [8, 9]: M1 to M2 ratio and CD8 T cells were both increased
peripheral blood CD8+ T cells and Tregs ([8]; peripheral blood): increased CD8+ T cells and decreased Tregs
histology of liver, lung and kidney [5]: no significant adverse effects
growth of MiaPaCa-2 subcutaneous xenografts [5]: significantly delayed the growth
mice body weight [5]: no significant change in mice body weight
serum level of GOT, GPT, BUN, albumin and creatinine [5]: No obvious difference
